The values below are quoted from earlier work in paper PMC10229114.

Data set [1] concerns the target SDF-1α (Homo sapiens) (UniProt P48061).
The target in data set [2] is SLy1 SAM (Homo sapiens) (UniProt O75995).

Sequence of SLy1 SAM (O75995 252-316): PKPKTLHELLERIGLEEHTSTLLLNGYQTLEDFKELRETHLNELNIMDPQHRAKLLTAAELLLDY
Sequence of SDF-1α (P48061 24-88): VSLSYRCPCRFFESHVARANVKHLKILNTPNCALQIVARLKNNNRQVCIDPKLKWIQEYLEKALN

For orientation: Kd means a measure of binding affinity in units of concentration. Regarding SDF-1α (from UniProt P48061), the Kd in data set [1] is 150 µM.

With SLy1 SAM (from UniProt O75995), in data set [2], the dissociation constant Kd was 117 µM.
